Experimental data: PMC10698503 (Molecular Systems Biology, 2023)
One block for each binder: values may come before it. Non-standard residues stand in square brackets, D forms with d. No end group written: not given here. pS = N[C@@H](COP(=O)(O)O)C(=O)O

Columns and labels:
His-PP1γ [1] = target: T1, His-PP1γ (UniProt P36873 1-323); assay: ITC; peptide (approximately 450 µM, syringe) titrated into PP1γ (~35 µM, cell); 25°C; 50 mM sodium phosphate, 150 mM NaCl, 0.5 mM TCEP, pH 7.5; single-site model; settings: both partners purified
T1 construct: PP1γ, catalytic subunit of protein phosphatase 1, gamma isoform; D1:p17 gives a molecular weight of 36965 Da for PP1; also called PP1g
T1 sequence (P36873 whole entry, canonical isoform): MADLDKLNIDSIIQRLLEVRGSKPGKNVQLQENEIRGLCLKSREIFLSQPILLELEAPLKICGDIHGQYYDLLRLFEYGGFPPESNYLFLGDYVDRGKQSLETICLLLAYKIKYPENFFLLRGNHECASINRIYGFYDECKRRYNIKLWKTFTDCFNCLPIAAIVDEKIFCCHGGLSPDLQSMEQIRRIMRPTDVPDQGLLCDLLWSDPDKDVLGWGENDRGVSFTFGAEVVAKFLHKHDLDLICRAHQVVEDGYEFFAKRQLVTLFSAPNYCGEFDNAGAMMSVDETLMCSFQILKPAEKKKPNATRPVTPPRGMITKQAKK

His-PP1γ [2] = target: His-PP1γ (UniProt P36873 1-323); assay: as above; settings: both partners purified
Target sequence in this assay (P36873 whole entry, canonical isoform): as above

Kd (His-PP1γ [1]): 190 ± 10 nM
Binder: AKNSRVTFSEDDEIW [Nipp1 197-209 peptide AKNSRVTFSEDDEIW]

Kd (His-PP1γ [1]): 120 ± 10 nM
B1: KNL1 1441-1455 peptide KLNSKRVSFKLPKDQW (peptide)
peptide: KLNSKRVSFKLPKDQW
notes: KNL1 (CASC5) 1441-1455 by the label; also called CASC5; source: synthetic peptide, bought: Peptide 2.0 Inc

Kd (His-PP1γ [2]): 1360 ± 10 nM
Binder: RRSPRI[pS]FFLEKENEW [Sororin 73-91 pS83 peptide RRSPRI(pS)FFLEKENEW]

Kd (His-PP1γ [1]): 2530 ± 110 nM
B2: Sororin 76-96 peptide PRRSPRISFFLEKENEPPGREW (peptide)
peptide: PRRSPRISFFLEKENEPPGREW
notes: Sororin (CDCA5) 76-96 by the label; also called CDCA5; source: synthetic peptide, bought: Peptide 2.0 Inc
